Laboratory results taken from patent publication US20230288413A1.

Key:
[1] = target: anti-S1 fragment of SARS-CoV-2's spike protein antibody; experiment: lateral flow dipstick; capture antibody trapped in 5% acrylamide hydrogel; S1-coated gold nanoparticles as reporter (FIG. 3, panel b)
[2] = target: anti-S1 fragment of SARS-CoV-2's spike protein antibody; experiment: lateral flow dipstick; capture antibody immobilized by physical adsorption; S1-coated gold nanoparticles as reporter (FIG. 3, panel a)
[3] = target: anti-S1 fragment of SARS-CoV-2's spike protein antibody; experiment: lateral flow dipstick; separate experiment with improved hydrogel and streptavidin; S1-coated gold nanoparticles as reporter (FIG. 3, panel d)
[4] = target: anti-S1 fragment of SARS-CoV-2's spike protein antibody; experiment: lateral flow dipstick; capture antibody held by streptavidin trapped in the hydrogel; S1-coated gold nanoparticles as reporter (FIG. 3, panel c)

biotin-SP-conjugated anti-human IgG Fc (antibody)
limit of detection [1]: 1 ng
limit of detection [2]: 10 ng
limit of detection [3]: 0.05 ng
limit of detection [4]: 0.1 ng
